Results: PMC9482650, “Quantitative fragmentomics allow affinity mapping of interactomes” (Nature Communications, 2022)

What was measured:
Assay in all cases: holdup assay
Set-up in all cases: key: below the threshold = too weak to quantify, mostly under pKd 3.1 to 4
Details in all cases: plain residues with an end cap or a label only (N-terminal biotin on a linker: ado-ado)
APBA2_2, Q99767 = target: T1, APBA2_2, Q99767
T1 sequence (Q99767 654-744, limits assumed, looked up): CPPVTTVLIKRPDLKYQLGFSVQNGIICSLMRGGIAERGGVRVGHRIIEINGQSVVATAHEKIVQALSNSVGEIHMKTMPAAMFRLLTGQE

TJP1_3, Q07157 = target: TJP1_3, Q07157
MAGI1_1, Q96QZ7 = target: MAGI1_1, Q96QZ7
MAST1, Q9Y2H9 = target: MAST1, Q9Y2H9
PDZD7_3, Q9H5P4 = target: T2, PDZD7_3, Q9H5P4
T2 sequence (Q9H5P4 857-944, limits assumed, looked up): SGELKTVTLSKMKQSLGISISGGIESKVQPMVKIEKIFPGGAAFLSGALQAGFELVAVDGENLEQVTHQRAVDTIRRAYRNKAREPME

DLG4_3, P78352 = target: DLG4_3, P78352
GOPC, Q9HD26 = target: GOPC, Q9HD26
MPDZ_12, O75970 = target: T3, MPDZ_12, O75970
T3 sequence (O75970 1857-1958, limits assumed, looked up): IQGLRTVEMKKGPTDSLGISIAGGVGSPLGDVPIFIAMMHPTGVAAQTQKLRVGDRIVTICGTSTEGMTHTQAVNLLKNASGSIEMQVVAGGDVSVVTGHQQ

Inadl_8, Q8NI35 = target: Inadl_8, Q8NI35
NHERF2_2, Q15599 = target: NHERF2_2, Q15599
GRID2IP_1, A4D2P6 = target: GRID2IP_1, A4D2P6
PDZRN4_1, Q6ZMN7 = target: PDZRN4_1, Q6ZMN7
CASK, O14936 = target: CASK, O14936
FRMPD2_2, Q68DX3 = target: FRMPD2_2, Q68DX3
GRIP1_3, Q9Y3R0 = target: T4, GRIP1_3, Q9Y3R0
T4 sequence (Q9Y3R0 247-346, limits assumed, looked up): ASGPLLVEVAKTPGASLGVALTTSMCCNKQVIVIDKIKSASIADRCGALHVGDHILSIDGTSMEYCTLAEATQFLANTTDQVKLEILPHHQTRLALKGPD

GRIP1_7, Q9Y3R0 = target: T5, GRIP1_7, Q9Y3R0
T5 sequence (Q9Y3R0 999-1096, limits assumed, looked up): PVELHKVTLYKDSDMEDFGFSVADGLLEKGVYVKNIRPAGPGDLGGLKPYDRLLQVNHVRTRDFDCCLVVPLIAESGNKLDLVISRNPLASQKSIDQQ

APBA1_1, Q02410 = target: T6, APBA1_1, Q02410
T6 sequence (Q02410 651-752, limits assumed, looked up): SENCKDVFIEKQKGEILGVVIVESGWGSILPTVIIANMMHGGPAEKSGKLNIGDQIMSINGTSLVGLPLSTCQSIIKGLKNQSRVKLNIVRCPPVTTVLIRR

DLG4_2, P78352 = target: DLG4_2, P78352
DFNB31_2, Q9P202 = target: T7, DFNB31_2, Q9P202
T7 sequence (Q9P202 274-371, limits assumed, looked up): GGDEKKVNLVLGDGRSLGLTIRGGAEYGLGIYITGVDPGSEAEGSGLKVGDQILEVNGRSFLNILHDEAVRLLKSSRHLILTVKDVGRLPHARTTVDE

DFNB31_3, Q9P202 = target: T8, DFNB31_3, Q9P202
T8 sequence (Q9P202 811-907, limits assumed, looked up): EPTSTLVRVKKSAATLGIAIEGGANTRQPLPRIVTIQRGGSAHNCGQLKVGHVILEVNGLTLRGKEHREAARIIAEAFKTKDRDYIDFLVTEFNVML

SYNJ2BP, P57105 = target: T9, SYNJ2BP, P57105
T9 sequence (P57105 8-110, limits assumed, looked up): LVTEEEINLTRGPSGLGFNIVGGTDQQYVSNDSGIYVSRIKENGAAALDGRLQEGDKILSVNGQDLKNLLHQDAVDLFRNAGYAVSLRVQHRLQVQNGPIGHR

PTPN13_1, Q12923 = target: T10, PTPN13_1, Q12923
T10 sequence (Q12923 1088-1188, limits assumed, looked up): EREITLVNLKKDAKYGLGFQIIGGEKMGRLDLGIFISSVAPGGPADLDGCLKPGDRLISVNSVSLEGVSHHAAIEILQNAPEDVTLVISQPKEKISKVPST

GRIP2_3, Q9C0E4 = target: GRIP2_3, Q9C0E4
MPP6, Q9NZW5 = target: T11, MPP6, Q9NZW5
T11 sequence (Q9NZW5 125-219, limits assumed, looked up): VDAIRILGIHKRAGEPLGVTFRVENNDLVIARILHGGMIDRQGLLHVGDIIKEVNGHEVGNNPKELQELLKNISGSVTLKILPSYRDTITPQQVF

MAGI1_2, Q96QZ7 = target: MAGI1_2, Q96QZ7
SHANK1, Q9Y566 = target: T12, SHANK1, Q9Y566
T12 sequence (Q9Y566 658-767, limits assumed, looked up): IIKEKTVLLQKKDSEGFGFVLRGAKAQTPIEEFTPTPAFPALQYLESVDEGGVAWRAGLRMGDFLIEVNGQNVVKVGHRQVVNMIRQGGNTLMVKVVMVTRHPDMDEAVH

FRMPD2_2, Q68DX3, sequence (Q68DX3 944-1038): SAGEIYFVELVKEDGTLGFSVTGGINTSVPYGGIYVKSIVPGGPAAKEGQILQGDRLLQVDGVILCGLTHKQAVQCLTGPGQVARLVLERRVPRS
MAGI1_1, Q96QZ7, sequence (Q96QZ7 1-106): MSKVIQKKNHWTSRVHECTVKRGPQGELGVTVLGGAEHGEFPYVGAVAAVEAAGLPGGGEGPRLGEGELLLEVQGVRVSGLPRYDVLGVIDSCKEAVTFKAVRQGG
DLG4_2, P78352, sequence (P78352 155-259): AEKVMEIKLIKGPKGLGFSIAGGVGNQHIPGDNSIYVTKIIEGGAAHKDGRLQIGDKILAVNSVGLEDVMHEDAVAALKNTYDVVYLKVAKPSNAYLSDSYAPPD
TJP1_3, Q07157, sequence (Q07157 416-512): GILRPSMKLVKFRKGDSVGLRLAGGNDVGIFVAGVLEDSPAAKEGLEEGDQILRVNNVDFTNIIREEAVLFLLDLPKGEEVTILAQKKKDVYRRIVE
NHERF2_2, Q15599, sequence (Q15599 142-238): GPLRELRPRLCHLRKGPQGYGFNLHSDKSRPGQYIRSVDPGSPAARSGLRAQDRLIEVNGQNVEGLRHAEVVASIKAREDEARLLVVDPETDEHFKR
GRIP2_3, Q9C0E4, sequence (Q9C0E4 238-339): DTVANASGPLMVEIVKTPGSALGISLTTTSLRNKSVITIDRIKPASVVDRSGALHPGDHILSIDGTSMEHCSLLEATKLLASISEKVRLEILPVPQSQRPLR
MAST1, Q9Y2H9, sequence (Q9Y2H9 962-1065): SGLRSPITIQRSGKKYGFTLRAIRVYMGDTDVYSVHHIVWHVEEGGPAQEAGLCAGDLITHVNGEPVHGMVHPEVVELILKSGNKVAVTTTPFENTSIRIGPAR
GRID2IP_1, A4D2P6, sequence (A4D2P6 1-87): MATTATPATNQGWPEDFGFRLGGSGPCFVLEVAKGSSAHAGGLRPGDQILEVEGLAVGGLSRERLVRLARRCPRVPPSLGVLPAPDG
MAGI1_2, Q96QZ7, sequence (Q96QZ7 456-580): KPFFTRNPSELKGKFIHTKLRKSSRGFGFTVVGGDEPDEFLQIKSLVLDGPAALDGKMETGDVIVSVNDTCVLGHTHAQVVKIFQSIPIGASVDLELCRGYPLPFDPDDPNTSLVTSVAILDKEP
DLG4_3, P78352, sequence (P78352 306-403): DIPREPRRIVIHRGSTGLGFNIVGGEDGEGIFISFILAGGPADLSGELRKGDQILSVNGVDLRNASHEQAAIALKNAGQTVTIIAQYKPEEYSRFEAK
PDZRN4_1, Q6ZMN7, sequence (Q6ZMN7 213-318): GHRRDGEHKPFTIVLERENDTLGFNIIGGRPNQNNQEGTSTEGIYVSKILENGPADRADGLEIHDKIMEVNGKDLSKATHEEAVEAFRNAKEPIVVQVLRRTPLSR
Inadl_8, Q8NI35, sequence (Q8NI35 1425-1530): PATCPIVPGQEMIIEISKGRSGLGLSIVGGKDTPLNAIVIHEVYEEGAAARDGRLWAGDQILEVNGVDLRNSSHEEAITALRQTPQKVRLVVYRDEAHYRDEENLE
CASK, O14936, sequence (O14936 487-570): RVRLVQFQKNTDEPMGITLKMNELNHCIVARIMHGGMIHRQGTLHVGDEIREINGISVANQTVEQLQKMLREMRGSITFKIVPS

B1: SDC4, P31431 (peptide)
chain: KKAPTNEFYA
pKd (APBA2_2, Q99767): below the threshold | pKd (TJP1_3, Q07157): below the threshold | pKd (MAGI1_1, Q96QZ7): below the threshold | pKd (MAST1, Q9Y2H9): below the threshold | pKd (PDZD7_3, Q9H5P4): below the threshold | pKd (DLG4_3, P78352): below the threshold | pKd (GOPC, Q9HD26): below the threshold | pKd (MPDZ_12, O75970): below the threshold | pKd (Inadl_8, Q8NI35): below the threshold | pKd (NHERF2_2, Q15599): below the threshold | pKd (GRID2IP_1, A4D2P6): below the threshold | pKd (PDZRN4_1, Q6ZMN7): below the threshold | pKd (CASK, O14936): below the threshold | pKd (FRMPD2_2, Q68DX3): below the threshold | pKd (GRIP1_3, Q9Y3R0): below the threshold | pKd (GRIP1_7, Q9Y3R0): below the threshold | pKd (APBA1_1, Q02410): below the threshold | pKd (DLG4_2, P78352): below the threshold | pKd (DFNB31_2, Q9P202): below the threshold | pKd (DFNB31_3, Q9P202): 3.85 | pKd (SYNJ2BP, P57105): below the threshold | pKd (PTPN13_1, Q12923): below the threshold | pKd (GRIP2_3, Q9C0E4): below the threshold | pKd (MPP6, Q9NZW5): 3.91 | pKd (MAGI1_2, Q96QZ7): below the threshold | pKd (SHANK1, Q9Y566): below the threshold

B2: DACT1, Q9NYF0 (peptide)
chain: SGSLKLMTTV
pKd (APBA2_2, Q99767): below the threshold | pKd (TJP1_3, Q07157): below the threshold | pKd (MAGI1_1, Q96QZ7): below the threshold | pKd (MAST1, Q9Y2H9): 3.97 | pKd (PDZD7_3, Q9H5P4): 5.22 | pKd (DLG4_3, P78352): 4.26 | pKd (GOPC, Q9HD26): 3.95 | pKd (MPDZ_12, O75970): 3.77 | pKd (Inadl_8, Q8NI35): 4.09 | pKd (NHERF2_2, Q15599): below the threshold | pKd (GRID2IP_1, A4D2P6): below the threshold | pKd (PDZRN4_1, Q6ZMN7): below the threshold | pKd (CASK, O14936): below the threshold | pKd (FRMPD2_2, Q68DX3): below the threshold | pKd (GRIP1_3, Q9Y3R0): below the threshold | pKd (GRIP1_7, Q9Y3R0): below the threshold | pKd (APBA1_1, Q02410): below the threshold | pKd (DLG4_2, P78352): 5.22 | pKd (DFNB31_2, Q9P202): below the threshold | pKd (DFNB31_3, Q9P202): 4.03 | pKd (SYNJ2BP, P57105): 4.3 | pKd (PTPN13_1, Q12923): below the threshold | pKd (GRIP2_3, Q9C0E4): below the threshold | pKd (MPP6, Q9NZW5): below the threshold | pKd (MAGI1_2, Q96QZ7): 5.1 | pKd (SHANK1, Q9Y566): below the threshold
